In patent EP4663762A2 (HongKong Bioheng Biotech Limited, dated 2025):

B1: immunosuppressive molecule of plasmid CAR19-AL3 (anti-NKG2A scFv, linker, anti-LAG3 scFv, IgG4 hinge, CD28 transmembrane region, CD28 co-stimulatory domain), … (other)
chain: EIVLTQSPATLSLSPGERATMTCSASSSVSSYIYWYQQKPGQAPRLLIYLTSNLASGIPARFSGSGSGTDFTLTISSLEPEDFATYYCQQWSGNPYTFGQGTKVEIKGSTSGSGKPGSGEGSTKGEVQLVESGGGLVKPGGSLRLSCAASGFTFSSYAMSWVRQAPGKGLEWVAEISSGGSYTYYPDSVKGRFTISRDNAKNSLYLQMNSLRAEDTAVYYCTRHGDYPRFFDVWGQGTLVTVSSGGGGSGGGGSGGGGSQVQLQQWGAGLLKPSETLSLTCAVYGGSFSDYYWNWIRQPPGKGLEWIGEINHRGSTNSNPSLKSRVTLSLDTSKNQFSLKLRSVTAADTAVYYCAFGYSDYEYNWFDPWGQGTLVTVSSGGGGSGGGGSGGGGSEIVLTQSPATLSLSPGERATLSCRASQSISSYLAWYQQKPGQAPRLLIYDASNRATGIPARFSGSGSGTDFTLTISSLEPEDFAVYYCQQRSNWPLTFGQGTNLEIKRESKYGPPCPPCPFWVLVVVGGVLACYSLLVTVAFIIFWVRSKRSRLLHSDYMNMTPRRPGPTRKHYQPYAPPRDFAAYRS
notes: Membrane-anchored on lentivirally transduced human T cells that also express the anti-CD19 CAR (separated by T2A)
B2: immunosuppressive molecule of plasmid CAR19-PT3 (anti-PD1 scFv, linker, anti-TIM3 scFv, IgG4 hinge, CD28 transmembrane region, CD28 co-stimulatory domain), on … (other)
chain: QVQLVQSGVEVKKPGASVKVSCKASGYTFTNYYMYWVRQAPGQGLEWMGGINPSNGGTNFNEKFKNRVTLTTDSSTTTAYMELKSLQFDDTAVYYCARRDYRFDMGFDYWGQGTTVTVSSGGGGSGGGGSGGGGSEIVLTQSPATLSLSPGERATLSCRASKGVSTSGYSYLHWYQQKPGQAPRLLIYLASYLESGVPARFSGSGSGTDFTLTISSLEPEDFAVYYCQHSRDLPLTFGGGTKVEIKGGGGSGGGGSGGGGSQVQLVQSGAEVKKPGSSVKVSCKASGYTFTSYNMHWVRQAPGQGLEWMGDIYPGNGDTSYNQKFKGRVTITADKSTSTVYMELSSLRSEDTAVYYCARVGGAFPMDYWGQGTTVTVSSGGGGSGGGGSGGGGSAIQLTQSPSSLSASVGDRVTITCRASESVEYYGTSLMQWYQQKPGKAPKLLIYAASNVESGVPSRFSGSGSGTDFTLTISSLQPEDFATYFCQQSRKDPSTFGGGTKVEIKESKYGPPCPPCPFWVLVVVGGVLACYSLLVTVAFIIFWVRSKRSRLLHSDYMNMTPRRPGPTRKHYQPYAPPRDFAAYRS
notes: Membrane-anchored on transduced T cells that also express the anti-CD19 CAR
B3: immunosuppressive molecule of plasmid CAR19-PL3 (anti-PD1 scFv, linker, anti-LAG3 scFv, IgG4 hinge, CD28 transmembrane region, CD28 co-stimulatory domain), on … (other)
chain: QVQLVQSGVEVKKPGASVKVSCKASGYTFTNYYMYWVRQAPGQGLEWMGGINPSNGGTNFNEKFKNRVTLTTDSSTTTAYMELKSLQFDDTAVYYCARRDYRFDMGFDYWGQGTTVTVSSGGGGSGGGGSGGGGSEIVLTQSPATLSLSPGERATLSCRASKGVSTSGYSYLHWYQQKPGQAPRLLIYLASYLESGVPARFSGSGSGTDFTLTISSLEPEDFAVYYCQHSRDLPLTFGGGTKVEIKGGGGSGGGGSGGGGSQVQLQQWGAGLLKPSETLSLTCAVYGGSFSDYYWNWIRQPPGKGLEWIGEINHRGSTNSNPSLKSRVTLSLDTSKNQFSLKLRSVTAADTAVYYCAFGYSDYEYNWFDPWGQGTLVTVSSGGGGSGGGGSGGGGSEIVLTQSPATLSLSPGERATLSCRASQSISSYLAWYQQKPGQAPRLLIYDASNRATGIPARFSGSGSGTDFTLTISSLEPEDFAVYYCQQRSNWPLTFGQGTNLEIKRESKYGPPCPPCPFWVLVVVGGVLACYSLLVTVAFIIFWVRSKRSRLLHSDYMNMTPRRPGPTRKHYQPYAPPRDFAAYRS
notes: as for B2
B4: immunosuppressive molecule of plasmid CAR19-PC4 (anti-PD1 scFv, linker, anti-CTLA4 scFv, IgG4 hinge, CD28 transmembrane region, CD28 co-stimulatory domain), on … (other)
chain: QVQLVQSGVEVKKPGASVKVSCKASGYTFTNYYMYWVRQAPGQGLEWMGGINPSNGGTNFNEKFKNRVTLTTDSSTTTAYMELKSLQFDDTAVYYCARRDYRFDMGFDYWGQGTTVTVSSGGGGSGGGGSGGGGSEIVLTQSPATLSLSPGERATLSCRASKGVSTSGYSYLHWYQQKPGQAPRLLIYLASYLESGVPARFSGSGSGTDFTLTISSLEPEDFAVYYCQHSRDLPLTFGGGTKVEIKGGGGSGGGGSGGGGSQVQLVESGGGVVQPGRSLRLSCAASGFTFSSYGMHWVRQAPGKGLEWVAVIWYDGSNKYYADSVKGRFTISRDNSKNTLYLQMNSLRAEDTAVFYCARAPNYIGAFDVWGQGTMVTVSSGGGGSGGGGSGGGGSDIQMTQSPSSLSASVGDRVTITCRASQGISSWLAWYQQKPEKAPKSLIYAASSLQSGVPSRFSGSGSGTDFTLTISSLQPEDFATYYCQQYNSYPPTFGQGTKVEIKESKYGPPCPPCPFWVLVVVGGVLACYSLLVTVAFIIFWVRSKRSRLLHSDYMNMTPRRPGPTRKHYQPYAPPRDFAAYRS
notes: as for B2
B5: immunosuppressive molecule of plasmid CAR19-ATT (anti-NKG2A scFv, linker, anti-TIGIT scFv, IgG4 hinge, CD28 transmembrane region, CD28 co-stimulatory domain), … (other)
chain: EIVLTQSPATLSLSPGERATMTCSASSSVSSYIYWYQQKPGQAPRLLIYLTSNLASGIPARFSGSGSGTDFTLTISSLEPEDFATYYCQQWSGNPYTFGQGTKVEIKGSTSGSGKPGSGEGSTKGEVQLVESGGGLVKPGGSLRLSCAASGFTFSSYAMSWVRQAPGKGLEWVAEISSGGSYTYYPDSVKGRFTISRDNAKNSLYLQMNSLRAEDTAVYYCTRHGDYPRFFDVWGQGTLVTVSSGGGGSGGGGSGGGGSEVQLQQSGPGLVKPSQTLSLTCAISGDSVSSNSAAWNWIRQSPSRGLEWLGKTYYRFKWYSDYAVSVKGRITINPDTSKNQFSLQLNSVTPEDTAVFYCTRESTTYDLLAGPFDYWGQGTLVTVSSGGGGSGGGGSGGGGSDIVMTQSPDSLAVSLGERATINCKSSQTVLYSSNNKKYLAWYQQKPGQPPNLLIYWASTRESGVPDRFSGSGSGTDFTLTISSLQAEDVAVYYCQQYYSTPFTFGPGTKVEIKRESKYGPPCPPCPFWVLVVVGGVLACYSLLVTVAFIIFWVRSKRSRLLHSDYMNMTPRRPGPTRKHYQPYAPPRDFAAYRS
notes: as for B2
B6: immunosuppressive molecule of plasmid CAR19-C4 (anti-CTLA4 scFv, IgG4 hinge, CD28 transmembrane region, CD28 co-stimulatory domain), on CAR19-C4 T cells (other)
chain: QVQLVESGGGVVQPGRSLRLSCAASGFTFSSYGMHWVRQAPGKGLEWVAVIWYDGSNKYYADSVKGRFTISRDNSKNTLYLQMNSLRAEDTAVFYCARAPNYIGAFDVWGQGTMVTVSSGGGGSGGGGSGGGGSDIQMTQSPSSLSASVGDRVTITCRASQGISSWLAWYQQKPEKAPKSLIYAASSLQSGVPSRFSGSGSGTDFTLTISSLQPEDFATYYCQQYNSYPPTFGQGTKVEIKESKYGPPCPPCPFWVLVVVGGVLACYSLLVTVAFIIFWVRSKRSRLLHSDYMNMTPRRPGPTRKHYQPYAPPRDFAAYRS
notes: as for B2
B7: immunosuppressive molecule of plasmid CAR19-C4T3 (anti-CTLA4 scFv, linker, anti-TIM3 scFv, IgG4 hinge, CD28 transmembrane region, CD28 co-stimulatory domain), … (other)
chain: QVQLVESGGGVVQPGRSLRLSCAASGFTFSSYGMHWVRQAPGKGLEWVAVIWYDGSNKYYADSVKGRFTISRDNSKNTLYLQMNSLRAEDTAVFYCARAPNYIGAFDVWGQGTMVTVSSGGGGSGGGGSGGGGSDIQMTQSPSSLSASVGDRVTITCRASQGISSWLAWYQQKPEKAPKSLIYAASSLQSGVPSRFSGSGSGTDFTLTISSLQPEDFATYYCQQYNSYPPTFGQGTKVEIKGGGGSGGGGSGGGGSQVQLVQSGAEVKKPGSSVKVSCKASGYTFTSYNMHWVRQAPGQGLEWMGDIYPGNGDTSYNQKFKGRVTITADKSTSTVYMELSSLRSEDTAVYYCARVGGAFPMDYWGQGTTVTVSSGGGGSGGGGSGGGGSAIQLTQSPSSLSASVGDRVTITCRASESVEYYGTSLMQWYQQKPGKAPKLLIYAASNVESGVPSRFSGSGSGTDFTLTISSLQPEDFATYFCQQSRKDPSTFGGGTKVEIKESKYGPPCPPCPFWVLVVVGGVLACYSLLVTVAFIIFWVRSKRSRLLHSDYMNMTPRRPGPTRKHYQPYAPPRDFAAYRS
notes: as for B2
B8: immunosuppressive molecule of plasmid CAR19-C4L3 (anti-CTLA4 scFv, linker, anti-LAG3 scFv, IgG4 hinge, CD28 transmembrane region, CD28 co-stimulatory domain), … (other)
chain: QVQLVESGGGVVQPGRSLRLSCAASGFTFSSYGMHWVRQAPGKGLEWVAVIWYDGSNKYYADSVKGRFTISRDNSKNTLYLQMNSLRAEDTAVFYCARAPNYIGAFDVWGQGTMVTVSSGGGGSGGGGSGGGGSDIQMTQSPSSLSASVGDRVTITCRASQGISSWLAWYQQKPEKAPKSLIYAASSLQSGVPSRFSGSGSGTDFTLTISSLQPEDFATYYCQQYNSYPPTFGQGTKVEIKGGGGSGGGGSGGGGSQVQLQQWGAGLLKPSETLSLTCAVYGGSFSDYYWNWIRQPPGKGLEWIGEINHRGSTNSNPSLKSRVTLSLDTSKNQFSLKLRSVTAADTAVYYCAFGYSDYEYNWFDPWGQGTLVTVSSGGGGSGGGGSGGGGSEIVLTQSPATLSLSPGERATLSCRASQSISSYLAWYQQKPGQAPRLLIYDASNRATGIPARFSGSGSGTDFTLTISSLEPEDFAVYYCQQRSNWPLTFGQGTNLEIKRESKYGPPCPPCPFWVLVVVGGVLACYSLLVTVAFIIFWVRSKRSRLLHSDYMNMTPRRPGPTRKHYQPYAPPRDFAAYRS
notes: as for B2

Columns and labels:
Experiment in all cases: flow cytometry, soluble tagged antigen staining T cells that carry the construct
[1] = molecular target: T1, Human LAG-3 / CD223 Protein, His Tag (ACRO) (human, UniProt P18627 23-450)
T1 construct: Bought reagent (ACRO); no catalogue number, no construct limits; not shown: His tag
T1 sequence (looked up): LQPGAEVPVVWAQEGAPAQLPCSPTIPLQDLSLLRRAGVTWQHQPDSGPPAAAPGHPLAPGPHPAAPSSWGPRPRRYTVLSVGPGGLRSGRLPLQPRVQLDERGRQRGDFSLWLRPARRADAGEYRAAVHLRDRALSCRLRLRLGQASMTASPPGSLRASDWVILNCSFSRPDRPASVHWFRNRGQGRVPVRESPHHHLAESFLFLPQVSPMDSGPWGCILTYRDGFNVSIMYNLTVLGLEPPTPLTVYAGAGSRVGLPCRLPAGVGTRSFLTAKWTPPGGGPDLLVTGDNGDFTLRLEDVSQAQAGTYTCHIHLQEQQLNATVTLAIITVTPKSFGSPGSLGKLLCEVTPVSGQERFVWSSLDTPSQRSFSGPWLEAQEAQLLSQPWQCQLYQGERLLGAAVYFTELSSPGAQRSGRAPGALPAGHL

[2] = molecular target: T2, Human PD-1 / PDCD1 Protein, His Tag (ACRO) (human, UniProt Q15116 25-167)
T2 construct: Bought reagent (ACRO); no catalogue number, no construct limits; also called CD279; not shown: His tag
T2 sequence (Q15116 25-167 limits assumed): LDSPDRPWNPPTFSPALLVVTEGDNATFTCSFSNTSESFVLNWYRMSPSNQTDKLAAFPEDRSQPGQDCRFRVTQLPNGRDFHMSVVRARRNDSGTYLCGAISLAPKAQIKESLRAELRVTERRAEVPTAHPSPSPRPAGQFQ

[3] = molecular target: T3, Human CTLA-4 / CD152 Protein, Fc Tag (ACRO) (human, UniProt P16410 36-161, limits assumed)
T3 construct: Bought reagent (ACRO); no catalogue number, no construct limits; not shown: Fc tag
T3 sequence (looked up): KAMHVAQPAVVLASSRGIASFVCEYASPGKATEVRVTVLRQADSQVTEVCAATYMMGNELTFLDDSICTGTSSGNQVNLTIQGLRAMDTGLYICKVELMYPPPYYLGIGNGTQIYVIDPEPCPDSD

[4] = molecular target: T4, Human TIGIT Protein, Fc Tag (ACRO) (human, UniProt Q495A1 22-141)
T4 construct: Bought reagent (ACRO); no catalogue number, no construct limits; also called Human TIGIT Protein, Fc TagTIGIT; not shown: Fc tag
T4 sequence (looked up): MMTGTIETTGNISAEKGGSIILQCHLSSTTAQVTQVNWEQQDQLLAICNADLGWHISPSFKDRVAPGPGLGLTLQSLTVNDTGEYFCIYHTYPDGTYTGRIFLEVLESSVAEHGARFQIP

Binder | binding result [1] | binding result [2] | binding result [3] | further results
B1 | binds |  |  | 
B2 |  | binds |  | 
B3 | binds | binds |  | 
B4 |  | binds | binds | 
B5 |  |  |  | binding result [4]: binds
B6 |  |  | binds | 
B7 |  |  | binds | 
B8 | binds |  | binds | 
